# Assay results published in a protein production outcome set (Wang et al. 2014).
# Assay: label from the status in PepcDB records
# 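Note: failed if final PepcDB status was selected cloned or expressed and not failed if soluble or beyond.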
row,Sequence,protein production
1,MEMEMINIRVLRFEPGVDEKPHLESYEIPSKEKMKVLDALQLINKIHGANIAFRSSCRAGQCGSCAVKMNGEVVLACRAEVEDGAIIEPIDLPVIKDLMVDRGEIEEKVKSMQLYLQASSEGIQRIRPEDYLDSKKLRGCIECFSCISSCPVIKESSEYAGPYFMRYLSKFAFDPRDTGDRAQEGVDKGLYCCTTCGKCAEVCPKELNVPGDAIEKLRAMACREGSGPLDAHRRIKKLISETGRSVDRIKDGFIESVGKNPGSRIGFFTGCLVDYRMPEVGMALLRVLREHGFDVDVPEGQVCCGSPMIRTGQVDIVEDLVEKNRKALRDYDTIITVCAGCGATLKKDYPRYGVKLNVLDISEFLADRIDTIKMKPVNMRVTYHDPCHLKRGQGVEFEPRKILRKIPGLEFVEMEKPDQCCGSGGGVKSGKPEVAEALGRKKADMIRELDVDAVVTICPFCQLHIRDSLDLAGLENVRVMNILELLDLAYSD,failed
2,MRGADGRVTDADYRELRGATETPREAVVVGLAGEVGLTSAEIPRVRPCDVAPHDHDGVTHYFLAVPGADGGSDRDAYLPPAVERDIRRRADAAGLADDDPLVDVSARRVQTLVNAVAGRTDTAGLDGVAAQDLRSFFARRLLTGAGVDPRVVAAVGGWSRLASLDQYAAVDAVDRDAIARAFDGTTRAPTDRSEQRAHDRVDEAHSAVLAAGDALSDASTRGAVETAVCEALAASDAYEMAWLARPTTRDDVTVAATAGGDRAIRDDASAAPGATLVQAALDDGTGLFTPAASAAPAVAALREHAAAAGVQAMGVVPVAGPEAAHGVLAVGASTARFSQRERTLITDLGRRVGRAVALAEQRHRLLTDTVLEVAFEVRAGSVFARAAVEQGCDLSLEGVVPGDRQTLVFFVRVAGAPADGVRDWLHDHDGVVSVRVVRDQGGEAVLAVGVAPGADLAMAVVSHGGTIRDLSAGPGGERVVAGVAPETDVRALLDALATAFPGVSLAAKRERARGDETGQRDGASLHDALTDKQAAVLRAAFHAGYFEWPRESTAEDLAADMGVTAPTLHNHLRRAQQKLLATVIDSDGGCDPDTPWPDTRQ,failed
3,MDAVKKAILGEVLEEEEAYEVMRALMAGEVSPVRAAGLLVALSLRGERPHEIAAMARAMREAARPLRVHRRPLLDIVGTGGDGKGLMXLSTLAALVAAAGGVAVAKHGXRAASSRAGSADLLEALGVDLEAPPERVGEAIEELGFGFLFARVFHPAMRHVAPVRAELGVRTVFXLLGPLTXPAGADAYVLGVFSPEWLAPMAEALERLGARGLVVHGEGADELVLGEXRVVEVGKGAYALTPEEVGLKRAPLEALKGGGPEEXAALARRLLKGEEKGPLADAVALAAGAGFYAAGKTPSLKEGVALAREVLASGEAYLLLERYVAFLRA,not failed
4,MNHWSMPPNPEKALMLAQRAVAVFVYDAVRLEGINFTLPEVQTLLQGVTVGGHRLSDQQIAVNQGEAWKLLFQMIRDGRFELTPDCAMALHGVAAKEEALEWGCFRSGSVLIAGTEYEPPAASELPTRFDRMIDELQHMDDVHDQAVHLFLTMARCQFFYDVNKRMGRFMMNGHLLSNGYPAINIPASSQLEFNELMLRFYDSGDQREMNAFVRSCMDERVVLIMKEELEHHHHHH,failed
5,MGGFRFHQYQVVGRALPTENDEHPKIYRMKLWGRNEVCAKSKFWYFMRKLKKVKKSNGQMLAINEIFEKNPTTIKNYGIWLRYQSRTGYHNMYKEYRDTTLNGGVEQMYTEMASRHRVRFPCIQIIKTATVPAKLCKREITKQFHNSKIKFPLVFRKVRPPSRKLKTTYKASKPNLFM,failed
6,MKKGFSALVEHNGYRVLVDTGTDGKILLNNMEGLGIDPNSIDALFLTHGHYDHTGGIAELLKARKDTLDVYAHPRIFEKRIALKPKRRDIGIPFSQEELESLGAIFHLNDKALEFLPGLISSGEIKRETWDRAVGYLLNNEKDPVRDDMALLIDLGDKIAVITGCGHSGILNIAKHAVEISKKPIRALIGGFHLRGASITILEDAVRGLKELNVEMLYPGHCTGIDEYAYLRMKLKAEHLNVGKEIVIK,failed
7,MKVIGINGSSRKDGNTAILIQTVFEELTKEGIETELIQLSGKNIEGCKACWACHKNRNKQCVITDDFFNECFAKMLVSDGIILGSPVYSAGVTSQMKALIDRASMVLAGNRGLFKHKVGASVVAARRGGAISAFGTLNNFLHSKEMFLVGSSYWNMAYGNAIGEVEQDQEGIDNMKNLGQNMAWILKKIHNS,failed
8,MGHHHHHHENLYFQSHERLSEKKIKNLLTSKQQRQQYEIKQRSMLRHLAELRRHSRFRRLCTKPASSSMPASTSSVDRRTTRRSTSQTSLSPSNSSGYGSVFGCEEHDVDKIPSLNGFAKLKRRRSSCVGAPTPNSKRSKNNMGVIAKRPPKGEYVVERIECVEMD,failed
9,MIMNTKERSLLGSWIIWSVAYYMYYPFISIYLSRFVEESKLSLFFVVFQAVSLPLPLIGARLSKRNRILPIIIGMLVGGIGMIMLPFSRNILEATIFMSLNYFISLSLPSYYSLMSEVGEGTITRIWSLSILPSIIMPSLGGLLAQYFGLRLLFMIGGIVLATSFLPMVNSSYNSSSQSLLNFNITIRSFLPAILILPIAMEFPYIYLVVYNYFHLTKEYVGIIATSAEILGMLLTYLASKLIFRKKYLLSLSLFLFSLTSLYFLSPTIAIFFGCWEVIVPLTLEYFSSRKTVYDFALITTMQGLGWVLGYLIDYFIPNISLLLLSSSLIAFLLALMIVFTKD,failed
10,MIENTIYKEFIDKISELSDGIYPIITDLDNDLSYVPDKTADFFGFEAGEHTCFFEQLSSCVNDVDLPEYKREIRYRLNGEKPDDIFYVRMGKHTKEYMMGFYSDIFTGDDGHRYHVLVLRNENTLPDIDPYTYLYGQSKFERDINGYIMENRSVAIIEVEIGHIDEFNILYGSNFNTAIQRELALKFIYMMDGSTATYYMNNCKFVFVVKEADRALAESFYQKIADTIKSMYFFKCFKFEFDIYAACLILKDYDGDTSTVISKVEYTLDRAKELHSSDLLFFNDMVRFNGSSHIDIMKIIHQSVINSCDGFFVEFQPIVKACNGEIMGAEALVRWKKEPFGTVPPGLFIDWLEDTPAMYELGNYIMRTAISAASEFAKIKPGFFINVNASSEQLEKENFVKDTLAILKEYDFPPSQLWIEITERCRDLPISMIKKTVTAFREAGIHITMDDYGTGSSSSQMMLELPVEGIKIDMFFVKDILEEKKKQALVIGMINFANAADLKICIEGIENDNLESYLRQFDVTWFQGYHYSRSICQDELMKLLIKP,failed
11,MNSYPLISVIMSVYKEEREWLVSSIQSILDQTVSDFEFIIILDFPNSELLKTLKDFEKKDSRIIIYQNEKNVGLVESLNTALSFSRGKYIARMDADDISHKNRFEKQLKYITLNNLDLVGGNVNIFHSNKGIYNTTDKVQSDYFLCKLLKIGTIGIVHPTFFSKRNVYDTIGGYYHAECAEDLELLMRANLNGFKIGNIPDVILDCRYSEKSITKENAYFMFCTVKYLKSLYRSSLKSGDYKFNSNYIELYLYDENNKLAFSEKQNLMSEARHSFNEKKYISFLINLIKSILISRTVFFSIKVNVMSFLFRKVEVKIPKVLLACIKIKLQLEHHHHHH,not failed
12,MNRTLAYKLGAIALLILLLLIPLLMIDGLIRDRQEVRDGVLQDIARSSSYSQRLTGPLLVVPYRRTVREWVTEEKTEKRVLQEREQRGELYFLPDRFALDGQMRTELRYRGIYQARLYHVDNKVAGYFQVPAHYGIEEDLEDYQFETPFLAMGISDIRGIENALRLSLNGASVDFEPGSRVGLLGSGVHAPLQGVDGRQAQRLEYAFDLSLLGSERLDIVPVGRDSQVILKADWPHPSFGGEFLPSEREITAQGFTARWQTSFFATNMEEALRSCVEEQRCDGFQARAFGVGLVDPVDQYLKADRAIKYALLFITLTFAGFFLFEVLKRLAVHPVQYALVGLALAFFYLLLLSLAEHVGFELAYLVSAGACVGLIGFYLCFVLRSVARGLGFSVGLAGLYGLLYGLLSAEDYALLMGSLLLFAVLAAVMVLTRRLDWYGVGRKDFPAVPARA,failed
13,MSLSTGATIVIDLGKTLSKVSLWDLDGRMLDRQVRPSIPLEIDGIRRLDAPDTGRWLLDVLSRYADHPVTTIVPVGHGAGIAALTDGRLAFPPLDYEQSIPEAVMADYRSQRDPFARTGSPALPDGLNIGSQLWWLDQLHPDVMANATLLPWAQYWAWFLTGRAVSEVTSLGCHSDLWDPQDGDFSPMAKRLGWAARFAPIVRAGDTVGALLPAIAERTGLSPDVQVLAGLHDSNAALLAARGFAEIADNEATVLSTGTWFIAMRLPATPVDTATLPEARDCLVNVDVHGRPVPSARFMGGREIETLIEIDTRRVDIKPDQPALLAAVPEVLRHGRMILPTLMRGFGPYPHGRFAWINRPEDWFERRAAACLYAALVADTALDLIGSTGRILVEGRFAEADVFVRALASLRPDCAVYTANAHNDVSFGALRLIDPGLRPQGELVRIEPLDTGSWADLDTYRNRWQAEVEAAKVEEGHHHHHH,not failed
14,SEYKFAKFAATYFQGTTTHSYTRRPLKQPLLYHDDEGDQLAALAVWITILRFMGDLPEPKYHTAMSDGSEKIPVMTKIYETLGKKTYKRELQALQGEGEAQLPEGQKKSSVR,failed
15,MLPAQDTRGKGLSLARRLYRSRTLGLALGFFCVAAGMAPLQPAPWVWGFMLFNAFAWPHLAYQWARLARVPFRAEYRNLLVDSLLGGFWVGAMHFNPLPLATTLGMMAMNNMALGGLRFFLAGSAAQVLGMGVALWLFGPAFVAQTTPEQVYACLPMLTLYPLALGYICYQQAVTLGRHKRELLALSRTDSLTGLLNHGAWKDQLEIEFQRCKRQAHGGAIALIDIDHFKAINDTYGHVAGDVVLRQLSKLLRQNLRVSDQAGRYGGDEFCVILPDVPLAHAAELMEALRGRFGALGYEQSPALQVSLSIGLAAFNPLHDDAMGWLNDADQALYAAKTCGRNNVTCHPPEQPSRRLLNSL,failed
16,MVDQSAVGRRFTPVTAHVEAGRLRYFLDTLGETNPVYRDAAAAKVEGFAAPPVPPTYLFCLEMLDNERPFEFLTALEIDLGRVLHGEQSFTYHAPVMVGDTLTFSPQVTSVTDKKGGAMTLIGVATAVTNQHGVHVADTTRTIVVRNGLEHHHHHH,not failed
17,MDLFNLLDGITFWHWLAFGFVLLAVELLGTAGYFLWLGLSALLVGALLAVLPFGWQLQWLSFATFSLLTTWLWWRRQWSRDKQDDQTRDLNQKYKQLIGRSVILEEDFSIGLNRIRIADTTWSAQCEQNIRAGTRVKIVAIDGIILIVEPISE,failed
18,MSKKKGLSAEEKRTRMMEIFSETKDVFQLKDLEKIAPKEKGITAMSVKEVLQSLVDDGMVDCERIGTSNYYWAFPSKALHARKHKLEVLESQLSEGSQKHASLQKSIEKAKIGRCETEERTRLAKELSSLRDQREQLKAEVEKYKDCDPQVVEEIRQANKVAKEAANRWTDNIFAIKSWAKRKFGFEENKIDRTFGIPEDFDYID,failed
19,NCKKIGEDSKIIIRQITDNDLELLMAWRSNPLIYKFFYIQKEPLKWEEHYSWWMSRENRVDWIILLRENNTIRKVGSVNVSQLNTDNPEIGILIGEFFLWGKHIGRHSVSLVLKWLKNIGYKKAHARILENNIRSIKLFESLGFKKTKKGRENEWIYEVNL,not failed
20,AYGLTFEAPKGILVEEDTEETFLLNNSRFYITIQSLDSDGMTKSDLKSVLKDYANDDGVKDQSAVQEFELPQFFGTYLKGSCETDHCLYACLMTKAAGSGFYISIIYSKENENIAEKILKSFTMEE,not failed
21,HKEFAVTMRPTEASERCHLRGSYTLRAGESALELWGGPEPGTQLYDWPYRFLRRFGRDKVTFSFEAGRRCVSGEGNFEFETRQGNEIFLALEEAISAQKN,not failed
22,GSALIDEIRSLGESLQGYNVRHINSTIIGGGVAEILSSLVPLMEDVGLTVNWEVLAGTTEFFHTTKLFHNGMHGQPVNITGEMLENYLAIAQKNQNLLDGDADLVVIHDQQPLGLTAFRGRTRGRWLWYCHVDPRYAVPEVWYFLAPMVATCDAAVFHLP,failed
23,EEIRKIPMFSSYNPGEPNKVLYLKNLSPRVTERDLVSLFARFQEKKGPPIQFRMMTGRMRGQAFITFPNKEIAWQALHLVNGYKLYGKILVIEFGKNKKQRS,not failed
